Data reported in US20140087995A1 (published 2014).
Numbered stars: 1 amine (or outer) side, 2 acyl side, 3 side chain; on linkers, the order of the positions; unused ones are H or OH. Bridge positions count the residues as written; N and C are the ends. Side chains are listed from the residue outwards. Ends that are not written are not given here. * marks the point of attachment. C20 diacid = O=C(O)CCCCCCCCCCCCCCCCCCC(=O)*; γGlu = O=C(O)[C@H](CCC(=O)[*:2])N[*:1]

T1: rat calcitonin receptor (rat, UniProt P32214 25-516)
T1 construct: whole, on cells; Membranes of transiently transfected BHK tk'ts 13 cells; also called rCTR; rat calcitonin (a) receptor
T1 sequence (looked up): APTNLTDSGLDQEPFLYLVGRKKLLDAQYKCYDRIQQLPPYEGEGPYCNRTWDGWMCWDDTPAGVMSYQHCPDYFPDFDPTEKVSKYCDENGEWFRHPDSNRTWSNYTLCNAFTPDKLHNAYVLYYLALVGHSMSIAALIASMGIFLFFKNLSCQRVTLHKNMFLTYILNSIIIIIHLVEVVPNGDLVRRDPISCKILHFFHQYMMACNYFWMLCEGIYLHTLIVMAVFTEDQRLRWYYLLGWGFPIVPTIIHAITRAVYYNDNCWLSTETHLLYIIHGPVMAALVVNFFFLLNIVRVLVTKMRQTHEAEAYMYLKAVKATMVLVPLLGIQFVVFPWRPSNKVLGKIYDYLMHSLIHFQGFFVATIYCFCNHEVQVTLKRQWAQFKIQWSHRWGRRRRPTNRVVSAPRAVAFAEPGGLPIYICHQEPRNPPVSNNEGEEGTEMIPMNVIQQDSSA

T2: human calcitonin receptor (human, UniProt P30988 25-474)
T2 construct: whole, on cells; Membranes of stably transfected cells; also called hCTR; hCT
T2 sequence (looked up): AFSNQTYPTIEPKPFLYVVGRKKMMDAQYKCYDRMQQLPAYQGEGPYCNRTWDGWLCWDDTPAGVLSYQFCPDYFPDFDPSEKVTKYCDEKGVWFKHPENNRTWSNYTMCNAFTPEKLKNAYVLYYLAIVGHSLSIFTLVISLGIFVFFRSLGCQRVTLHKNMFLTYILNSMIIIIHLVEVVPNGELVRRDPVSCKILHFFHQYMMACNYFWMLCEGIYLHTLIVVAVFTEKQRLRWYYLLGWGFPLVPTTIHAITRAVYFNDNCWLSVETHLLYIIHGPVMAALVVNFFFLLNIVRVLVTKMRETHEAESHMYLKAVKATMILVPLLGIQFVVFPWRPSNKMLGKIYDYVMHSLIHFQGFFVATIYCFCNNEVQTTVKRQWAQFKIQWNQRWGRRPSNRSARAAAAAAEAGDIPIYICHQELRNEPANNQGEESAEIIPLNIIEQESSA

T3: rat amylin receptor (rat calcitonin receptor + rat RAMP 3) (rat, UniProt P32214 25-516; Q9JJ73 23-147)
T3 construct: whole, on cells; Membranes of transiently transfected BHK tk'ts 13 cells; also called rAmylin-R; rat amylin 3(a) receptor
T3 sequence (looked up) 1: T1 sequence (looked up)
T3 sequence (looked up) 2: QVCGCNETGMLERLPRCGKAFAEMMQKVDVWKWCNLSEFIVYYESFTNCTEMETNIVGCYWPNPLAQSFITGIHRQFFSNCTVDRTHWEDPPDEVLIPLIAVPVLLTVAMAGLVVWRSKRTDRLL

B1: N^-1-[(4S)-4-carboxy-4-(19-carboxynonadecanoylamino)butanoyl]-Gly[Arg1,His14,Arg17,Pro21,Pro27,His34]-h-amylin (peptide)
peptide: {C20 diacid-γGlu}-GRCNTATCATQRLAHFLRHSSPNFGAIPSSTNVGHNTY-NH2
modifications: disulfide 3-8
SMILES: CC[C@H](C)[C@H](NC(=O)[C@H](C)NC(=O)CNC(=O)[C@H](Cc1ccccc1)NC(=O)[C@H](CC(N)=O)NC(=O)[C@@H]1CCCN1C(=O)[C@H](CO)NC(=O)[C@H](CO)NC(=O)[C@H](Cc1c[nH]cn1)NC(=O)[C@H](CCCNC(=N)N)NC(=O)[C@H](CC(C)C)NC(=O)[C@H](Cc1ccccc1)NC(=O)[C@H](Cc1c[nH]cn1)NC(=O)[C@H](C)NC(=O)[C@H](CC(C)C)NC(=O)[C@H](CCCNC(=N)N)NC(=O)[C@H](CCC(N)=O)NC(=O)[C@@H](NC(=O)[C@H](C)NC(=O)[C@@H]1CSSC[C@H](NC(=O)[C@H](CCCNC(=N)N)NC(=O)CNC(=O)CC[C@H](NC(=O)CCCCCCCCCCCCCCCCCCC(=O)O)C(=O)O)C(=O)N[C@@H](CC(N)=O)C(=O)N[C@@H]([C@@H](C)O)C(=O)N[C@@H](C)C(=O)N[C@@H]([C@@H](C)O)C(=O)N1)[C@@H](C)O)C(=O)N1CCC[C@H]1C(=O)N[C@@H](CO)C(=O)N[C@@H](CO)C(=O)N[C@H](C(=O)N[C@@H](CC(N)=O)C(=O)N[C@H](C(=O)NCC(=O)N[C@@H](Cc1c[nH]cn1)C(=O)N[C@@H](CC(N)=O)C(=O)N[C@H](C(=O)N[C@@H](Cc1ccc(O)cc1)C(N)=O)[C@@H](C)O)C(C)C)[C@@H](C)O
notes: Synthetic acylated analogue of human amylin, extended by Gly at position -1; also called compound 100
B2: N^-1-[(4S)-4-carboxy-4-(19-carboxynonadecanoylamino)butanoyl]-Gly[Arg1,Ala14,Arg17,Pro21,Pro27,His34]-h-amylin (peptide)
peptide: {C20 diacid-γGlu}-GRCNTATCATQRLAAFLRHSSPNFGAIPSSTNVGHNTY-NH2
modifications: disulfide 3-8
SMILES: CC[C@H](C)[C@H](NC(=O)[C@H](C)NC(=O)CNC(=O)[C@H](Cc1ccccc1)NC(=O)[C@H](CC(N)=O)NC(=O)[C@@H]1CCCN1C(=O)[C@H](CO)NC(=O)[C@H](CO)NC(=O)[C@H](Cc1c[nH]cn1)NC(=O)[C@H](CCCNC(=N)N)NC(=O)[C@H](CC(C)C)NC(=O)[C@H](Cc1ccccc1)NC(=O)[C@H](C)NC(=O)[C@H](C)NC(=O)[C@H](CC(C)C)NC(=O)[C@H](CCCNC(=N)N)NC(=O)[C@H](CCC(N)=O)NC(=O)[C@@H](NC(=O)[C@H](C)NC(=O)[C@@H]1CSSC[C@H](NC(=O)[C@H](CCCNC(=N)N)NC(=O)CNC(=O)CC[C@H](NC(=O)CCCCCCCCCCCCCCCCCCC(=O)O)C(=O)O)C(=O)N[C@@H](CC(N)=O)C(=O)N[C@@H]([C@@H](C)O)C(=O)N[C@@H](C)C(=O)N[C@@H]([C@@H](C)O)C(=O)N1)[C@@H](C)O)C(=O)N1CCC[C@H]1C(=O)N[C@@H](CO)C(=O)N[C@@H](CO)C(=O)N[C@H](C(=O)N[C@@H](CC(N)=O)C(=O)N[C@H](C(=O)NCC(=O)N[C@@H](Cc1c[nH]cn1)C(=O)N[C@@H](CC(N)=O)C(=O)N[C@H](C(=O)N[C@@H](Cc1ccc(O)cc1)C(N)=O)[C@@H](C)O)C(C)C)[C@@H](C)O
notes: Synthetic acylated analogue of human amylin, extended by Gly at position -1
B3: N^-1-[(4S)-4-carboxy-4-(19-carboxynonadecanoylamino)butanoyl]-Gly[Arg1,Ala14,Arg17,Pro21,Pro27,Pro34]-h-amylin (peptide)
peptide: {C20 diacid-γGlu}-GRCNTATCATQRLAAFLRHSSPNFGAIPSSTNVGPNTY-NH2
modifications: disulfide 3-8
notes: as for B2
B4: N^-1-[(4S)-4-carboxy-4-(19-carboxynonadecanoylamino)butanoyl]-Gly[Arg1,His14,Arg17,Pro21,Pro27,Pro34]-h-amylin (peptide)
peptide: {C20 diacid-γGlu}-GRCNTATCATQRLAHFLRHSSPNFGAIPSSTNVGPNTY-NH2
modifications: disulfide 3-8
SMILES: CC[C@H](C)[C@H](NC(=O)[C@H](C)NC(=O)CNC(=O)[C@H](Cc1ccccc1)NC(=O)[C@H](CC(N)=O)NC(=O)[C@@H]1CCCN1C(=O)[C@H](CO)NC(=O)[C@H](CO)NC(=O)[C@H](Cc1c[nH]cn1)NC(=O)[C@H](CCCNC(=N)N)NC(=O)[C@H](CC(C)C)NC(=O)[C@H](Cc1ccccc1)NC(=O)[C@H](Cc1c[nH]cn1)NC(=O)[C@H](C)NC(=O)[C@H](CC(C)C)NC(=O)[C@H](CCCNC(=N)N)NC(=O)[C@H](CCC(N)=O)NC(=O)[C@@H](NC(=O)[C@H](C)NC(=O)[C@@H]1CSSC[C@H](NC(=O)[C@H](CCCNC(=N)N)NC(=O)CNC(=O)CC[C@H](NC(=O)CCCCCCCCCCCCCCCCCCC(=O)O)C(=O)O)C(=O)N[C@@H](CC(N)=O)C(=O)N[C@@H]([C@@H](C)O)C(=O)N[C@@H](C)C(=O)N[C@@H]([C@@H](C)O)C(=O)N1)[C@@H](C)O)C(=O)N1CCC[C@H]1C(=O)N[C@@H](CO)C(=O)N[C@@H](CO)C(=O)N[C@H](C(=O)N[C@@H](CC(N)=O)C(=O)N[C@H](C(=O)NCC(=O)N1CCC[C@H]1C(=O)N[C@@H](CC(N)=O)C(=O)N[C@H](C(=O)N[C@@H](Cc1ccc(O)cc1)C(N)=O)[C@@H](C)O)C(C)C)[C@@H](C)O
notes: as for B2
B5: N^ε1-[(4S)-4-carboxy-4-[[(4S)-4-carboxy-4-(19-carboxynonadecanoylamino)butanoyl]amino]butanoyl]-[His14,Arg17,Pro21,Pro27]-h-amylin (peptide)
peptide: K([γGlu-γGlu-C20 diacid])CNTATCATQRLAHFLRHSSPNFGAIPSSTNVGSNTY-NH2
modifications: disulfide 2-7; N-terminus assumed
SMILES: CC[C@H](C)[C@H](NC(=O)[C@H](C)NC(=O)CNC(=O)[C@H](Cc1ccccc1)NC(=O)[C@H](CC(N)=O)NC(=O)[C@@H]1CCCN1C(=O)[C@H](CO)NC(=O)[C@H](CO)NC(=O)[C@H](Cc1c[nH]cn1)NC(=O)[C@H](CCCNC(=N)N)NC(=O)[C@H](CC(C)C)NC(=O)[C@H](Cc1ccccc1)NC(=O)[C@H](Cc1c[nH]cn1)NC(=O)[C@H](C)NC(=O)[C@H](CC(C)C)NC(=O)[C@H](CCCNC(=N)N)NC(=O)[C@H](CCC(N)=O)NC(=O)[C@@H](NC(=O)[C@H](C)NC(=O)[C@@H]1CSSC[C@H](NC(=O)[C@@H](N)CCCCNC(=O)CC[C@H](NC(=O)CC[C@H](NC(=O)CCCCCCCCCCCCCCCCCCC(=O)O)C(=O)O)C(=O)O)C(=O)N[C@@H](CC(N)=O)C(=O)N[C@@H]([C@@H](C)O)C(=O)N[C@@H](C)C(=O)N[C@@H]([C@@H](C)O)C(=O)N1)[C@@H](C)O)C(=O)N1CCC[C@H]1C(=O)N[C@@H](CO)C(=O)N[C@@H](CO)C(=O)N[C@H](C(=O)N[C@@H](CC(N)=O)C(=O)N[C@H](C(=O)NCC(=O)N[C@@H](CO)C(=O)N[C@@H](CC(N)=O)C(=O)N[C@H](C(=O)N[C@@H](Cc1ccc(O)cc1)C(N)=O)[C@@H](C)O)C(C)C)[C@@H](C)O
notes: Synthetic acylated analogue of human amylin; also called compound 92
B6: N^ε1-[(4S)-4-carboxy-4-[[(4S)-4-carboxy-4-(19-carboxynonadecanoylamino)butanoyl]amino]butanoyl]-[Ser14,Arg17,Pro21,Pro27,Pro34,Glu35]-h-amylin (peptide)
peptide: K([γGlu-γGlu-C20 diacid])CNTATCATQRLASFLRHSSPNFGAIPSSTNVGPETY-NH2
modifications: disulfide 2-7; N-terminus assumed
SMILES: CC[C@H](C)[C@H](NC(=O)[C@H](C)NC(=O)CNC(=O)[C@H](Cc1ccccc1)NC(=O)[C@H](CC(N)=O)NC(=O)[C@@H]1CCCN1C(=O)[C@H](CO)NC(=O)[C@H](CO)NC(=O)[C@H](Cc1c[nH]cn1)NC(=O)[C@H](CCCNC(=N)N)NC(=O)[C@H](CC(C)C)NC(=O)[C@H](Cc1ccccc1)NC(=O)[C@H](CO)NC(=O)[C@H](C)NC(=O)[C@H](CC(C)C)NC(=O)[C@H](CCCNC(=N)N)NC(=O)[C@H](CCC(N)=O)NC(=O)[C@@H](NC(=O)[C@H](C)NC(=O)[C@@H]1CSSC[C@H](NC(=O)[C@@H](N)CCCCNC(=O)CC[C@H](NC(=O)CC[C@H](NC(=O)CCCCCCCCCCCCCCCCCCC(=O)O)C(=O)O)C(=O)O)C(=O)N[C@@H](CC(N)=O)C(=O)N[C@@H]([C@@H](C)O)C(=O)N[C@@H](C)C(=O)N[C@@H]([C@@H](C)O)C(=O)N1)[C@@H](C)O)C(=O)N1CCC[C@H]1C(=O)N[C@@H](CO)C(=O)N[C@@H](CO)C(=O)N[C@H](C(=O)N[C@@H](CC(N)=O)C(=O)N[C@H](C(=O)NCC(=O)N1CCC[C@H]1C(=O)N[C@@H](CCC(=O)O)C(=O)N[C@H](C(=O)N[C@@H](Cc1ccc(O)cc1)C(N)=O)[C@@H](C)O)C(C)C)[C@@H](C)O
notes: Synthetic acylated analogue of human amylin; also called compound 120

molecular target: T1, rat calcitonin receptor; test: ratio of IC50 on rat calcitonin receptor to IC50 on rat amylin receptor (reference m40)

Ratio rCT/rAmylin binding	Binder
27.7	B1
60.9	B2
129	B3
97.7	B4
156	B5
868	B6

molecular target: T2, human calcitonin receptor; test: ratio of IC50 on human calcitonin receptor to IC50 on human amylin receptor (reference m42), SPA competition
Procedure, shortened: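 Membranes (35 ng/μL final) + SPA beads, 50 mM Hepes pH 7.4 buffer with 1 mM CaCl2, 5 mM MgCl₂, 0.1% OA, 0.02% Tween20; 120 min, 25° C, shaking; centrifuged, counted; IC₅₀ by one-site binding competition.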

Ratio hCT/hAmylin binding	Binder
65.3	B1
68.6	B2
26.5	B3
36.2	B4
145	B5
45.3	B6

molecular target: T1, rat calcitonin receptor; test: SPA competition with 125I-calcitonin on membranes of BHK tk'ts 13 cells with rat calcitonin receptor (Assay VIII)

IC50	Binder
311 nM	B1
492 nM	B2
56.3 nM	B3
65.9 nM	B4
104 nM	B5
140 nM	B6

molecular target: T3, rat amylin receptor (rat calcitonin …); test: SPA competition with 125I-rat amylin on membranes of BHK tk'ts 13 cells with rat calcitonin receptor + rat RAMP3 (Assay VI)

IC50	Binder
11.2 nM	B1
8.07 nM	B2
0.436 nM	B3
0.674 nM	B4
0.668 nM	B5
0.161 nM	B6
